Molecular target: the molecule itself
Test: SEC

B1: Saccharomyces cerevisiae dUTP pyrophosphatase DUT1 (enzyme, S. cerevisiae)
chain: MTATSDKVLKIQLRSASATVPTKGSATAAGYDIYASQDITIPAMGQGMVSTDISFTVPVGTYGRIAPRSGLAVKNGIQTGAGVVDRDYTGEVKVVLFNHSQRDFAIKKGDRVAQLILEKIVDDAQIVVVDSLEESARGAGGFGSTGN
- stoichiometry N: 3

From article PMC4671291 (The Biochemical journal, 2011)
